Assay results: patent publication US20120190623A1

Columns and labels:
[1] = target: vWF (human) (UniProt P04275); test: biosensor (SPR), fVIII captured on immobilized anti-fVIII antibody
[2] = target: IR8 (90/b/73 R336I/R562K/R740A; del795-1688/Arg336Iso/Arg562Lys/Arg740Ala) (human) (UniProt P00451); test: optical biosensor; IR8 captured on immobilized Mab NMC-VIII/5, vWF added at 10 nM
[3] = target: IR8 (90/b/73 R336I/R562K/R740A; del795-1688/Arg336Iso/Arg562Lys/Arg740Ala) (human) (UniProt P00451); test: optical biosensor; IR8 (30 nM) captured on immobilized Mab NMC-VIII/5, vWF added at 10 nM
[4] = target: von Willebrand factor (vWF) (human) (UniProt P04275); test: in vitro binding to vWF, method not named in the sentence (ELISA / affinity biosensor)
[5] = target: von Willebrand factor (vWF) (human) (UniProt P04275); test: FVIII-vWF binding ELISA, anti-A2 domain trap, vWF from FVIII-deficient plasma, anti-vWF-HRP detection, with ESH8
[6] = target: von Willebrand factor (vWF) (human) (UniProt P04275); test: ELISA and affinity biosensor analysis
[7] = target: von Willebrand factor (vWF) (human) (UniProt P04275); test: summary of ELISA and biosensor results
[8] = target: von Willebrand factor (vWF) (human) (UniProt P04275); test: FVIII-vWF binding ELISA, anti-A2 domain trap, vWF from FVIII-deficient plasma, anti-vWF-HRP detection, no ESH8
[9] = target: von Willebrand factor (vWF) (human) (UniProt P04275); test: biosensor (SPR), IR8 captured on immobilized anti-fVIII antibody; without ESH8
[10] = target: A1/A3-C1-C2 heterodimer of thrombin-cleaved FVIII (human) (UniProt P00451); test: optical biosensor, purified protein after thrombin cleavage
Chain of A1/A3-C1-C2 heterodimer of thrombin-cleaved FVIII (human) (P00451 20-391, chain 1 of 2): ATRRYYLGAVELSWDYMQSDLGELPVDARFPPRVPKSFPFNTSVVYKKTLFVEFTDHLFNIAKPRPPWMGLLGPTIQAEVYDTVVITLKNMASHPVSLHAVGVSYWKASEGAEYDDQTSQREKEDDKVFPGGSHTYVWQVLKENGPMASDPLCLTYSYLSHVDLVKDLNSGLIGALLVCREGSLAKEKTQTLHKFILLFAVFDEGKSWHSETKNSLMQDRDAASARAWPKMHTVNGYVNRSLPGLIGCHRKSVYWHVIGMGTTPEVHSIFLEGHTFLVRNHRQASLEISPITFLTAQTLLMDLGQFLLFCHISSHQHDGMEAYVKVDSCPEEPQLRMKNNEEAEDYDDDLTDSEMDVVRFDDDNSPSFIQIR
Chain of A1/A3-C1-C2 heterodimer of thrombin-cleaved FVIII (human) (P00451 1709-2351, chain 2 of 2): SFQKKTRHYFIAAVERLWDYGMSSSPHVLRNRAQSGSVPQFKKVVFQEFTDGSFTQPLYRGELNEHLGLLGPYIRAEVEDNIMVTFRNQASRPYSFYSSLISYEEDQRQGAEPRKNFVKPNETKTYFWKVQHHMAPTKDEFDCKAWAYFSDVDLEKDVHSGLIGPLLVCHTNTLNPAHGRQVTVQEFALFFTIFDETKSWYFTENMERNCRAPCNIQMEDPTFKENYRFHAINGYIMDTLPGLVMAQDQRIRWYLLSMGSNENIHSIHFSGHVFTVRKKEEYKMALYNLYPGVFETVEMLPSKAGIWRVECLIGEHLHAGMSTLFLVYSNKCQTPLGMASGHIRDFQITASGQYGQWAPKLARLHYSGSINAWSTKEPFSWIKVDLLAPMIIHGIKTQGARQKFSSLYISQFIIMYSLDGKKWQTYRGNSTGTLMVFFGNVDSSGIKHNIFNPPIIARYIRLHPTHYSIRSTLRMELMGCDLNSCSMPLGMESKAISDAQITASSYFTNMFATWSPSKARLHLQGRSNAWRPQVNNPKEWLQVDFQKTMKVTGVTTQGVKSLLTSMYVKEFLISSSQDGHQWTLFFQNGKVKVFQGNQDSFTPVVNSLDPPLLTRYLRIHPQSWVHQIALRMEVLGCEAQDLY

[11] = target: IR8 (90/b/73 R336I/R562K/R740A; del795-1688/Arg336Iso/Arg562Lys/Arg740Ala) (human) (UniProt P00451); test: cell-based or functional assay
[12] = target: wild-type factor VIII (FVIII WT) (human) (UniProt P00451); test: cell-based or functional assay
Chain of wild-type factor VIII (FVIII WT) (human) (P00451 20-2351 limits assumed): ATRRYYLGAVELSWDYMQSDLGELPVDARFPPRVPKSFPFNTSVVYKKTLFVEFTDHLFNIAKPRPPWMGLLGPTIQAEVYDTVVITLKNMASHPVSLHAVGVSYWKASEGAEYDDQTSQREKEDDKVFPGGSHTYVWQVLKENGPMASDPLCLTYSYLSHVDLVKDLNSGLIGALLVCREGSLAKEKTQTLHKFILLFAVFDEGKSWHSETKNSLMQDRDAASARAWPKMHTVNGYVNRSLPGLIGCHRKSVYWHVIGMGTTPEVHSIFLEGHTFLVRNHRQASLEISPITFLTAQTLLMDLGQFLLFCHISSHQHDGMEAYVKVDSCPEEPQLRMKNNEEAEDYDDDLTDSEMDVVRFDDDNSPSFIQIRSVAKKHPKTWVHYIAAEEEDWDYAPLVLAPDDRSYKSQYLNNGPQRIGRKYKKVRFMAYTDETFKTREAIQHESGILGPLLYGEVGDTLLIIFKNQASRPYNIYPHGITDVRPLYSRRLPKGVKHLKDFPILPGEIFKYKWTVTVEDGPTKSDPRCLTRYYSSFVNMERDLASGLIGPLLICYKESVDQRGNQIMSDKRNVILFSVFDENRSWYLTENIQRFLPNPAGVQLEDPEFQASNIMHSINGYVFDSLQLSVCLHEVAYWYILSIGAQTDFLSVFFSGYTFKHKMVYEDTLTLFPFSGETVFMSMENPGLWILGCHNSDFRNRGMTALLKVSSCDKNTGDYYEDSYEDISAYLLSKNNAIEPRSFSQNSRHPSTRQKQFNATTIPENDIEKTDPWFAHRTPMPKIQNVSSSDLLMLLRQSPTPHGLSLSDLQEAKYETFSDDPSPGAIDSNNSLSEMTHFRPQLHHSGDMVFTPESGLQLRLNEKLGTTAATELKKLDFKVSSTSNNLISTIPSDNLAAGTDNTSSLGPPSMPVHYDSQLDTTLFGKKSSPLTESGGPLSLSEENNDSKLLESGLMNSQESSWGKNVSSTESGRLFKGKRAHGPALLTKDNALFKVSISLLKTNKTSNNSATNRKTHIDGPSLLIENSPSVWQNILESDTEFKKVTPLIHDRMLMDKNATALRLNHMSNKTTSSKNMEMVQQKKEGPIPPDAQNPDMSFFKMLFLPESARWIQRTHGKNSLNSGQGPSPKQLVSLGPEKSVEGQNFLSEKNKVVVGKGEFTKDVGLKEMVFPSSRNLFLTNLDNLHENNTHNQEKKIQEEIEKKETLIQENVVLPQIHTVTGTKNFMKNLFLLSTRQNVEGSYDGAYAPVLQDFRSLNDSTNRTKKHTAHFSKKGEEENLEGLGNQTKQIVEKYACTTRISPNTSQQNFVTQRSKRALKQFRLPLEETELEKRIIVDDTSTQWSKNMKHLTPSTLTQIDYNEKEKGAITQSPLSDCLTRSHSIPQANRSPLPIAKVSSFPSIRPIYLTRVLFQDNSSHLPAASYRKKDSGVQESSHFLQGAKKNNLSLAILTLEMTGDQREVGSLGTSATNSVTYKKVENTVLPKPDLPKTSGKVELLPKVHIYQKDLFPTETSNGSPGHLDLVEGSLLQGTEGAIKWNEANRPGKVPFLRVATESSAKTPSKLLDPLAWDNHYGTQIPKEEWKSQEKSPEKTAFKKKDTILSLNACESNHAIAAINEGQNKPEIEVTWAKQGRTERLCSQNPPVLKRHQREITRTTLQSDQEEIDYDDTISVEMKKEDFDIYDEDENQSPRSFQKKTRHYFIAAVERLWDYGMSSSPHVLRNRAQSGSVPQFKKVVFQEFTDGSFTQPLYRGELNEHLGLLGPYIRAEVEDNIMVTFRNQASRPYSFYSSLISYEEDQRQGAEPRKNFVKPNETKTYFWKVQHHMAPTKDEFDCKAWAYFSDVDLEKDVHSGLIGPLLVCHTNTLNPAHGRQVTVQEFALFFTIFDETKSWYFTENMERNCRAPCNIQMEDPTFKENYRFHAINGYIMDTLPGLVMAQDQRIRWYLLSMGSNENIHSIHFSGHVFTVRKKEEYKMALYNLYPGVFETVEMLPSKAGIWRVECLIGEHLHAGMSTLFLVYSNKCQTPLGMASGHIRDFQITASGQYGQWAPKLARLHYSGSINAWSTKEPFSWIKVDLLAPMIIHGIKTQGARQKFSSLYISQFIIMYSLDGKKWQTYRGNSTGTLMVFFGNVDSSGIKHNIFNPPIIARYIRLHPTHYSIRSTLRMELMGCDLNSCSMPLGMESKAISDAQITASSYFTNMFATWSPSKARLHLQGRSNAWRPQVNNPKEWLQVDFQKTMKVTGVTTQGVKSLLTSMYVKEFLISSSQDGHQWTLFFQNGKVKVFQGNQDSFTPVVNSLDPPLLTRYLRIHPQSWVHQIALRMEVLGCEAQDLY

[13] = target: vWF (human) (UniProt P04275); test: biosensor (SPR), IR8 captured on immobilized anti-fVIII antibody; with ESH8

Chain of IR8 (90/b/73 R336I/R562K/R740A; del795-1688/Arg336Iso/Arg562Lys/Arg740Ala) (human) (P00451 other isoform, or with tags, fused parts or gaps R336I R562K R740A R562K R740A R336I R562K R740A R562K R740A, form in doubt): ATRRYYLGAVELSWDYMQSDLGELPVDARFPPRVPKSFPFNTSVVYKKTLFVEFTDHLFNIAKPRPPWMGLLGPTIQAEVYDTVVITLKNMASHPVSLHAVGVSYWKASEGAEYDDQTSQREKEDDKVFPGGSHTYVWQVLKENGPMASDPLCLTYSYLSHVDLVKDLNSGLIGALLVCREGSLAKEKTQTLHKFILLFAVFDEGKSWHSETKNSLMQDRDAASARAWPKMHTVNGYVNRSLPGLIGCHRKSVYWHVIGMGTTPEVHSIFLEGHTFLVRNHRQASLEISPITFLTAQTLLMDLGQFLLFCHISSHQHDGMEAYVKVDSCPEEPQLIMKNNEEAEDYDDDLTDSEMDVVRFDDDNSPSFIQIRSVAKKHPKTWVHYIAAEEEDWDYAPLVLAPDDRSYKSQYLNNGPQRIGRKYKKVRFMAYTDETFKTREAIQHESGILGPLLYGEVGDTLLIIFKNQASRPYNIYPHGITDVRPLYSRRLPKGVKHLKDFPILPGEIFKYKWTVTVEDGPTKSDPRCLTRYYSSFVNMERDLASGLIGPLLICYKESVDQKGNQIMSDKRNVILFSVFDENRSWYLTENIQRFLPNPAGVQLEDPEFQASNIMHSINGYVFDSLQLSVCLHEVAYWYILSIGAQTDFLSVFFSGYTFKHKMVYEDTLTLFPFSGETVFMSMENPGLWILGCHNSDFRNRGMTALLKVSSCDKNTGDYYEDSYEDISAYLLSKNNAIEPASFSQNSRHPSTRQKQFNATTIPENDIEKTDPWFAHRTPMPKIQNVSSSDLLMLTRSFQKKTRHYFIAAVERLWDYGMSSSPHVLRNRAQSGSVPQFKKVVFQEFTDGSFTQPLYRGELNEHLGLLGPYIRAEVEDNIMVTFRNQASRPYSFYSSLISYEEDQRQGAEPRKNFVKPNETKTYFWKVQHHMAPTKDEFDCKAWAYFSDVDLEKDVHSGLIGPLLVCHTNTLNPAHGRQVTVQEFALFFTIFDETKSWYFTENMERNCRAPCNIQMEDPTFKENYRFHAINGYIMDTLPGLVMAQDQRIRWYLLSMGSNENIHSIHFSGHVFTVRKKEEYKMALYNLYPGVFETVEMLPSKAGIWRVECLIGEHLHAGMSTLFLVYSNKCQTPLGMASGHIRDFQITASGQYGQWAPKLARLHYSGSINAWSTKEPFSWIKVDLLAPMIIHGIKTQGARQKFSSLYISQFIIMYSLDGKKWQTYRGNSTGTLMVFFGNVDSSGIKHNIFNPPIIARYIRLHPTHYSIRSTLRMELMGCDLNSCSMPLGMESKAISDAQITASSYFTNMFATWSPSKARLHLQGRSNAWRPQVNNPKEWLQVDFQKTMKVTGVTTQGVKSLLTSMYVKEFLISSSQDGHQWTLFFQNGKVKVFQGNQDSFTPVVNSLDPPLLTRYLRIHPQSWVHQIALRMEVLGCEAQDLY

Substance: pdfVIII
- Kd [1]: 0.31 nM

Substance: von Willebrand factor (vWF) (from UniProt P04275 764-2813)
- Kd [2]: 29.6 nM
- koff [2]: 0.0042 s⁻¹
- kon [3]: 140000 M⁻¹ s⁻¹

Substance: wild-type factor VIII (FVIII WT) (from UniProt P00451 20-2351)
- Kd [4]: 0.3 nM

Substance: IR8/ESH8 complex (from UniProt P00451 20-759; P00451 1708-2351)
- Kd [4]: 1.3 nM
- fold lower binding affinity compared to wild-type FVIII [5]: 2 fold

Substance: IR8 (90/b/73 R336I/R562K/R740A; del795-1688/Arg336Iso/Arg562Lys/Arg740Ala) (from UniProt P00451 20-759; P00451 1708-2351)
- fold reduced affinity compared to rFVIII [6]: 20 fold
- fold lower affinity than FVIII WT [7]: 10 fold
- fold lower binding affinity compared to wild-type FVIII [8]: 10 fold
- Kd [9]: 10.5 nM

Substance: A2 subunit of thrombin-cleaved R698W B-domainless FVIII (from UniProt P00451 392-759)
- fold increased rate of A2 subunit dissociation compared to a B domainless FVIII control [10]: 3 fold

Substance: ESH8, anti-light chain factor VIII mouse monoclonal antibody
- % Of Initial Activity (APTT, 4 hour incubation at 37 C with FVIII-deficient plasma), + ESH8 (% of initial activity) [11]: 120
- % Of Initial Activity (APTT, 4 hour incubation at 37 C with FVIII-deficient plasma), + ESH8 (% of initial activity) [12]: 29

Substance: A2 subunit of thrombin-cleaved R698L B-domainless FVIII (from UniProt P00451 392-759)
- fold increased rate of A2 subunit dissociation compared to a B domainless FVIII control [10]: 2 fold

Substance: IR8/ESH8 (from UniProt P00451 20-759; P00451 1708-2351)
- koff [13]: 0.0025 s⁻¹
